# Results: the RNAGym collection of RNA variant scans (doi:10.7554/elife.80360)
# B1: Hairpin Ribozyme (parent)
# chain: GUCCUCUUUCACGUGCGCGUGAAAGAGAGAAGUGAACCAGAGAAACACACGUUGUGGUAUAUUACCUGGUA
# Variants of: B1
# Assay: self-cleavage, relative activity (ratio to wild type); higher = more cleavage; co-transcriptional
row,Variant,self-cleavage
1,C3A C65G,0.314
2,U2G A11G,0.306
3,U2G A11U,0.295
4,U2G A11C,0.267
5,C3A G29C,0.102
6,C3A G29A,0.112
7,U2C U67A,0.0712
8,C3U A26C,0.314
9,C3G U20A,0.222
10,C3A G68U,0.195
11,C3A A24C,0.775
12,C4A G25A,0.169
13,C4A G29A,0.119
14,C3G A47U,0.0452
15,C3G A44G,0.15
16,C4A C16U,0.197
17,C3U A39C,0.199
18,C3U A39G,0.122
19,C3U A39U,0.253
20,C3U A22U,0.395
21,C3A A11U,0.517
22,C3A G21C,0.489
23,C3G A45U,0.122
24,C3A G19A,0.59

row,Variant,self-cleavage
1,U2G U62A,0.0977
2,C3U G21C,0.32
3,C3U G21U,0.472
4,C4A G56A,0.114
5,C3G G19A,0.2
6,C3G G19U,0.26
7,C3G G19C,0.229
8,C4A C12A,0.187
9,C3A C4A,0.204
10,C3U U67C,0.122
11,U2G U52C,0.346
12,U2G U52G,0.458
13,U2G U52A,0.33
14,C3G C50G,0.127
15,C3G G15U,0.29
16,C3U G25A,0.205
17,C3U G25U,0.187
18,C3G U52G,0.212
19,C3A C37U,0.543
20,C3A A61G,0.186
21,C3U C6G,0.288
22,C3A G15A,0.524
23,C3A G15U,0.761
24,C3G U60C,0.314

row,Variant,self-cleavage
1,C3A C10G,0.631
2,U2G U60C,0.373
3,U2G U55C,0.168
4,C4A G17A,0.174
5,C3G U14G,0.145
6,C4A A23G,0.209
7,C3G A41G,0.193
8,U2G,0.348
9,C3A U60A,0.515
10,U2G C3G,0.785
11,C3A A41G,0.7
12,U2G G32U,0.119
13,U2G G32A,0.0684
14,U2G G32C,0.155
15,C3U G40U,0.119
16,C3U G40C,0.0768
17,U2G A36U,0.318
18,U2G A45G,0.118
19,C4A A26C,0.13
20,C4A A26U,0.228
21,C4A A26G,0.17
22,C3G C6A,0.267
23,C4A U5G,0.109
24,C4A U5C,0.23

row,Variant,self-cleavage
1,U2G A44U,0.0754
2,C3U U20C,0.38
3,C3U U53C,0.672
4,C3G G17C,0.198
5,U2G G29U,0.137
6,C4A G57C,0.156
7,C4A G57A,0.117
8,U2G G56A,0.0909
9,C3U A23C,0.408
10,C3G G32A,0.0849
11,C3U C16U,0.628
12,C3A U20C,0.728
13,C4A U53C,0.206
14,C4A U53A,0.363
15,U2G A41G,0.38
16,C4A C37U,0.16
17,C3G C10G,0.182
18,C3A G13U,0.568
19,C4A C65G,0.179
20,C3G G69C,0.177
21,U2G A43C,0.115
22,C3A G42A,0.146
23,C3A G42U,0.249
24,C3A G51C,0.615

row,Variant,self-cleavage
1,C3A A64U,0.249
2,U2G U33G,0.171
3,U2G U33C,0.0578
4,C4A G54U,0.118
5,C4A G54C,0.133
6,C4A G54A,0.184
7,C3G A26C,0.276
8,C4A G42C,0.132
9,C4A A59U,0.0921
10,C4A A59C,0.191
11,C3A A49U,0.0975
12,U2G C66A,0.147
13,C3U A43U,0.207
14,U2G C4G,0.165
15,C4A A36U,0.197
16,C3U G13U,0.429
17,C3G G34A,0.27
18,C3G G34U,1.01
19,C4A U14A,0.191
20,C3A G25U,0.406
21,C3A A23G,0.613
22,U2G U5C,0.271
23,U2G U5A,0.288
24,U2G G15C,0.342

row,Variant,self-cleavage
1,U2G G15U,0.395
2,C4A G34C,0.676
3,C4A G34A,0.37
4,C3G U7A,0.321
5,C3G U67C,0.104
6,C3G U67G,0.102
7,C3G A22U,0.246
8,C3A U63A,0.0798
9,C3U U52A,0.522
10,C3G U9A,0.112
11,C4A C66U,0.136
12,C4A C66G,0.193
13,C3A A22G,0.706
14,C3A A22U,0.702
15,C4A C18U,0.342
16,C4A C18G,0.198
17,U2G C12A,0.304
18,U2G C12U,0.321
19,C4A A28U,0.174
20,U2G A35G,0.213
21,U2G A35C,0.477
22,C3U U9A,0.299
23,C3U U9C,0.387
24,C3U U8C,0.253

row,Variant,self-cleavage
1,U2G G68U,0.2
2,U2G G68C,0.135
3,U2G G68A,0.166
4,U2G U63G,0.252
5,U2G U63C,0.142
6,C4A G15A,0.227
7,C4A G15U,0.182
8,U2G U67G,0.194
9,C3G C46G,0.0681
10,C3U U60C,0.705
11,C3U U60G,0.331
12,C3U C37A,0.315
13,C3U C37G,0.262
14,C4A C50G,0.149
15,C4A C50A,0.178
16,C3G U53A,0.212
17,C3A G17C,0.375
18,C3A G17A,0.785
19,C3G U70A,0.252
20,C3G A39U,0.114
21,C3G A39G,0.108
22,C3A G40U,0.194
23,C3U U62G,0.259
24,U2C U58A,0.235

row,Variant,self-cleavage
1,C4A G69U,0.169
2,U2G G19C,0.338
3,C3G C4A,0.185
4,C3U U5C,0.299
5,U2G G27C,0.112
6,C3G G21A,0.173
7,C3G G21C,0.154
8,C3U G56A,0.16
9,U2G U53G,0.267
10,C3A A47U,0.112
11,C4A A35C,0.127
12,C3A U53A,0.662
13,C3A U53C,0.664
14,C3A A59U,0.126
15,U2G A26U,0.238
16,U2G A26C,0.153
17,C3G A71G,0.308
18,C3A A26U,0.653
19,C3U G32U,0.102
20,C3U G32A,0.08
21,C3U G69C,0.185
22,U2G U8G,0.471
23,C3G C48A,0.0662
24,C3G C48G,0.196

row,Variant,self-cleavage
1,C4A C38U,0.135
2,C3G A11C,0.137
3,C3G A11G,0.18
4,C3A U52G,0.538
5,C3U A64G,0.212
6,C3G U63C,0.164
7,C3G C66G,0.0857
8,C4A U55A,0.163
9,C4A U55C,0.0693
10,U2G U14C,0.277
11,C4A G13A,0.193
12,C3G U8G,0.204
13,C3G A35C,0.36
14,C3G C37A,0.162
15,C3G G68U,0.102
16,C3A U70C,0.675
17,C3A U70A,0.377
18,C3A U70G,0.708
19,C4A A24G,0.143
20,C3G C65U,0.0576
21,C3G C65A,0.263
22,C3A U8A,0.547
23,C4A U9A,0.233
24,C3A G34U,1.34

row,Variant,self-cleavage
1,C3A G57A,0.131
2,C3A C46A,0.219
3,C3A C6G,0.455
4,U2G G40U,0.072
5,U2G G40C,0.126
6,C3U G68C,0.142
7,C3G G51U,0.342
8,U2G G54U,0.128
9,C4A U8G,0.0842
10,C4A A44U,0.239
11,C3U C4A,0.0854
12,C3U C4U,0.39
13,C3G C12U,0.26
14,C3G C12A,0.254
15,C3U A30U,0.0886
16,C3U A30G,0.104
17,U2G A23C,0.289
18,U2G A23G,0.318
19,C3A C16A,0.677
20,C3U A45U,0.159
21,U2G C10A,0.258
22,U2G A28U,0.32
23,U2G A28G,0.138
24,C3U A61G,0.117

row,Variant,self-cleavage
1,C3U A61U,0.227
2,C3U A61C,0.164
3,U2G G34U,0.984
4,C3U C12G,0.471
5,C3U C12A,0.546
6,U2C U62G,0.0944
7,C3A A31C,0.144
8,C3A A31U,0.155
9,U2G U70A,0.191
10,U2G C46G,0.12
11,C3A C38U,0.416
12,U2G G57A,0.169
13,C3G C16A,0.324
14,C3U A11G,0.338
15,C3U A11C,0.402
16,U2G G42U,0.0398
17,U2C U55A,0.0763
18,C3G U62G,0.128
19,C3G U62A,0.107
20,C4A A71C,0.674
21,C3A A36G,0.712
22,C3A A36U,0.319
23,C3U C65G,0.153
24,C3U G34U,1.17

row,Variant,self-cleavage
1,C4A G27C,0.093
2,C4A G27A,0.285
3,C4A G27U,0.557
4,C3U G42A,0.123
5,C3U G42U,0.21
6,U2G G25A,0.224
7,U2G G25U,0.359
8,C3U G17U,0.473
9,U2G A71U,0.283
10,C3A G27U,0.15
11,C3A G27A,0.27
12,C3U G54U,0.227
13,U2C U63A,0.115
14,C3A A30U,0.16
15,C3G A23G,0.126
16,C3G A23U,0.28
17,U2G C38U,0.24
18,U2G C18U,0.378
19,C4A G19C,0.143
20,U2G C50A,0.15
21,C4A C48U,0.15
22,C4A C48G,0.207
23,C3G U55A,0.0814
24,C3A A71G,0.715

row,Variant,self-cleavage
1,C3A U14A,0.525
2,C3A U14C,0.677
3,C4A A31G,0.101
4,C4A U20A,0.0852
5,C3U G57C,0.094
6,C4A A11C,0.353
7,C3U U58C,0.738
8,C3U A36C,0.369
9,C3U C66G,0.0901
10,C4A G40U,0.141
11,C4A G40C,0.0835
12,C4A G40A,0.133
13,C3U A59G,0.0802
14,C4A A49U,0.189
15,C3U U63A,0.189
16,U2G A39U,0.162
17,U2G A39G,0.179
18,C3G A64G,0.126
19,C3G A64C,0.129
20,C3A A28U,0.689
21,C4A A41G,0.13
22,C3A C18G,0.602
23,U2G A61U,0.191
24,C3U A49C,0.112

row,Variant,self-cleavage
1,C3U A49G,0.409
2,C4A A43G,0.0748
3,C3U C38G,0.201
4,C3U C48G,0.159
5,C3U C48U,0.172
6,C3G G27A,0.266
7,C3G G27C,0.0838
8,C3G A36G,0.255
9,C3U U70C,0.351
10,C3U U70A,0.305
11,C4A C10G,0.164
12,C3U A31G,0.296
13,C3U A31C,0.267
14,C3A U55G,0.193
15,C3A U55C,0.261
16,C3U A44C,0.0442
17,C3G A49C,0.0939
18,C3G A49U,0.188
19,C3G G42A,0.0837
20,C3U A41G,0.643
21,C3U A41C,0.983
22,C4A A39G,0.134
